Test results published in US20160002331A1.
pKd: −log10 of the molar value. Where two headings read alike, the source gives them in different places.

Experiments:
[1] = target: human Notch1 NRR_Avi_His recombinant protein (human) (UniProt P46531); experiment: SPR (Biacore T100), antibody captured by anti-human IgG-Fc, NRR_Avi_His as analyte, 1:1 Langmuir model
[2] = target: Notch1 receptor with L1594P/D1610V mutations (DND-41 cells) (UniProt P46531); experiment: cell-based or functional assay
[3] = target: Notch1 receptor with a 12 amino acid insertion at position 1595 (CCRF-CEM cells) (UniProt P46531); experiment: cell-based or functional assay
Notch1 receptor with a 12 amino acid insertion at position 1595 (CCRF-CEM cells), sequence (P46531 other isoform, or with tags, fused parts or gaps limits assumed): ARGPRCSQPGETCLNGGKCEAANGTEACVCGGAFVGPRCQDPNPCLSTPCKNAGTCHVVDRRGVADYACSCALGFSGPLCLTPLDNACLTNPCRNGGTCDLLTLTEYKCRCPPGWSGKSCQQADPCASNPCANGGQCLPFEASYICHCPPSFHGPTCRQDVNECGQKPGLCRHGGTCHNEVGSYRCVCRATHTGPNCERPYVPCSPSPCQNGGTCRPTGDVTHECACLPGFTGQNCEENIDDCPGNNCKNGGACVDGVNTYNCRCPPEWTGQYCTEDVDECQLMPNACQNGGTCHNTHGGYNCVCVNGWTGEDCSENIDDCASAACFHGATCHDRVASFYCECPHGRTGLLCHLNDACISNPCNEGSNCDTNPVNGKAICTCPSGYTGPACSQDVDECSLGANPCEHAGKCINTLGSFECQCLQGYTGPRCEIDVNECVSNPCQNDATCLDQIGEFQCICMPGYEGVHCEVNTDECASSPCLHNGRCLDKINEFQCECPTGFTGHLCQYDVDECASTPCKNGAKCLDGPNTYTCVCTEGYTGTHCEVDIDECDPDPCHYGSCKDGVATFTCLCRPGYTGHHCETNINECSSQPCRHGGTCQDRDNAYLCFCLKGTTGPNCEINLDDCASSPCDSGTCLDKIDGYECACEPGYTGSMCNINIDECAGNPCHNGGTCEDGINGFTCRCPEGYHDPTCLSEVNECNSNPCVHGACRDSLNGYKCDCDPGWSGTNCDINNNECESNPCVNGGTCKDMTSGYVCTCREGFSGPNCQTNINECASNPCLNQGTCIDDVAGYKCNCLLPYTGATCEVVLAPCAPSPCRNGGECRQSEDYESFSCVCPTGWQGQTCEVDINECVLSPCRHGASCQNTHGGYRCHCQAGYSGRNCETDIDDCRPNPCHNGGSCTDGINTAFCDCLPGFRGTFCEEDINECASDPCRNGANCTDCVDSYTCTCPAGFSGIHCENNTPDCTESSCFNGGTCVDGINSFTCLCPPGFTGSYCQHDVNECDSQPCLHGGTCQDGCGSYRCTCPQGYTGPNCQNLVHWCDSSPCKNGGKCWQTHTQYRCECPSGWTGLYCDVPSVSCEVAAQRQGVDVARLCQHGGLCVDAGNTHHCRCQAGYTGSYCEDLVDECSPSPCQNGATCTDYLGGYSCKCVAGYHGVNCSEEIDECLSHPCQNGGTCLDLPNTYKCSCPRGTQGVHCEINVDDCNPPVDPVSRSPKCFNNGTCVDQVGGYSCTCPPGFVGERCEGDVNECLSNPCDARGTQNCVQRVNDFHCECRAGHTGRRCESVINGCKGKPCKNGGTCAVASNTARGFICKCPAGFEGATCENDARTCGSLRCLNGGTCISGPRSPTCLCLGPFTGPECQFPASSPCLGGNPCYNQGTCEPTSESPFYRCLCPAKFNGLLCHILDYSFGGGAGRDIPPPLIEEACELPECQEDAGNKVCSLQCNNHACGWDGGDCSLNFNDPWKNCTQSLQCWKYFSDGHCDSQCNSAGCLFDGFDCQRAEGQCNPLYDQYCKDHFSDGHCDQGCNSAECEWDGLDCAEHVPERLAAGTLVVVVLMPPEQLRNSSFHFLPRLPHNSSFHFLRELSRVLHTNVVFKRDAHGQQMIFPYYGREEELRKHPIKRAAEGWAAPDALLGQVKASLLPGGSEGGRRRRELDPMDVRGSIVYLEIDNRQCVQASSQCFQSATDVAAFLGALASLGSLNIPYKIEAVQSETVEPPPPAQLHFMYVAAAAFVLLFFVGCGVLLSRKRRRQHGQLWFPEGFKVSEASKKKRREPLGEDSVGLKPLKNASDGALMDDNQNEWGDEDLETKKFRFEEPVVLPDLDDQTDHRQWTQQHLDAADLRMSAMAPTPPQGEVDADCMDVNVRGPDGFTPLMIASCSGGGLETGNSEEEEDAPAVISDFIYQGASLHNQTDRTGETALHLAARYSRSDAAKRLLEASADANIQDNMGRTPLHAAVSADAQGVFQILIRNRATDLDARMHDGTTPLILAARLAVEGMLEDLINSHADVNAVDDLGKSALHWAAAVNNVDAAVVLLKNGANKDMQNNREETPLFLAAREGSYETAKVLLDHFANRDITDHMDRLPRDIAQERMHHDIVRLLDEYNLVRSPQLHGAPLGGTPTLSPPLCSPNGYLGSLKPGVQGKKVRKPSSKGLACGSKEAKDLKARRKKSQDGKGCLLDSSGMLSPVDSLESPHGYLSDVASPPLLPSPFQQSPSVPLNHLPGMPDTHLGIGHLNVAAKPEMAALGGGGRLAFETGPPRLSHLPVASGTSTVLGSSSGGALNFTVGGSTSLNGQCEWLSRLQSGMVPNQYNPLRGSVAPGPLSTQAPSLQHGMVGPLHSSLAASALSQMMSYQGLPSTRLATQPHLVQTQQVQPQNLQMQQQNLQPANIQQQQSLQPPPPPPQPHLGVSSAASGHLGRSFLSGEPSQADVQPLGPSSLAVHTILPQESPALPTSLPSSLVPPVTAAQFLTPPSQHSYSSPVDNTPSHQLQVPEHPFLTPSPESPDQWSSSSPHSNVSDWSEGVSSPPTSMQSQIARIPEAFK

[4] = target: Notch1 receptor with a 17 amino acid insertion at position 1740 (Jurkat cells) (UniProt P46531); experiment: cell-based or functional assay
[5] = target: Notch1 receptor with L1601P mutation (MOLT-4 cells) (UniProt P46531); experiment: cell-based or functional assay
[6] = target: Notch1 receptor with L1594P mutation (ALL-SIL cells) (UniProt P46531); experiment: cell-based or functional assay
[7] = target: full-length human Notch1 expressed on the cell surface (human) (UniProt P46531); experiment: cell-based or functional assay
full-length human Notch1 expressed on the cell surface (human), sequence (P46531 19-2555): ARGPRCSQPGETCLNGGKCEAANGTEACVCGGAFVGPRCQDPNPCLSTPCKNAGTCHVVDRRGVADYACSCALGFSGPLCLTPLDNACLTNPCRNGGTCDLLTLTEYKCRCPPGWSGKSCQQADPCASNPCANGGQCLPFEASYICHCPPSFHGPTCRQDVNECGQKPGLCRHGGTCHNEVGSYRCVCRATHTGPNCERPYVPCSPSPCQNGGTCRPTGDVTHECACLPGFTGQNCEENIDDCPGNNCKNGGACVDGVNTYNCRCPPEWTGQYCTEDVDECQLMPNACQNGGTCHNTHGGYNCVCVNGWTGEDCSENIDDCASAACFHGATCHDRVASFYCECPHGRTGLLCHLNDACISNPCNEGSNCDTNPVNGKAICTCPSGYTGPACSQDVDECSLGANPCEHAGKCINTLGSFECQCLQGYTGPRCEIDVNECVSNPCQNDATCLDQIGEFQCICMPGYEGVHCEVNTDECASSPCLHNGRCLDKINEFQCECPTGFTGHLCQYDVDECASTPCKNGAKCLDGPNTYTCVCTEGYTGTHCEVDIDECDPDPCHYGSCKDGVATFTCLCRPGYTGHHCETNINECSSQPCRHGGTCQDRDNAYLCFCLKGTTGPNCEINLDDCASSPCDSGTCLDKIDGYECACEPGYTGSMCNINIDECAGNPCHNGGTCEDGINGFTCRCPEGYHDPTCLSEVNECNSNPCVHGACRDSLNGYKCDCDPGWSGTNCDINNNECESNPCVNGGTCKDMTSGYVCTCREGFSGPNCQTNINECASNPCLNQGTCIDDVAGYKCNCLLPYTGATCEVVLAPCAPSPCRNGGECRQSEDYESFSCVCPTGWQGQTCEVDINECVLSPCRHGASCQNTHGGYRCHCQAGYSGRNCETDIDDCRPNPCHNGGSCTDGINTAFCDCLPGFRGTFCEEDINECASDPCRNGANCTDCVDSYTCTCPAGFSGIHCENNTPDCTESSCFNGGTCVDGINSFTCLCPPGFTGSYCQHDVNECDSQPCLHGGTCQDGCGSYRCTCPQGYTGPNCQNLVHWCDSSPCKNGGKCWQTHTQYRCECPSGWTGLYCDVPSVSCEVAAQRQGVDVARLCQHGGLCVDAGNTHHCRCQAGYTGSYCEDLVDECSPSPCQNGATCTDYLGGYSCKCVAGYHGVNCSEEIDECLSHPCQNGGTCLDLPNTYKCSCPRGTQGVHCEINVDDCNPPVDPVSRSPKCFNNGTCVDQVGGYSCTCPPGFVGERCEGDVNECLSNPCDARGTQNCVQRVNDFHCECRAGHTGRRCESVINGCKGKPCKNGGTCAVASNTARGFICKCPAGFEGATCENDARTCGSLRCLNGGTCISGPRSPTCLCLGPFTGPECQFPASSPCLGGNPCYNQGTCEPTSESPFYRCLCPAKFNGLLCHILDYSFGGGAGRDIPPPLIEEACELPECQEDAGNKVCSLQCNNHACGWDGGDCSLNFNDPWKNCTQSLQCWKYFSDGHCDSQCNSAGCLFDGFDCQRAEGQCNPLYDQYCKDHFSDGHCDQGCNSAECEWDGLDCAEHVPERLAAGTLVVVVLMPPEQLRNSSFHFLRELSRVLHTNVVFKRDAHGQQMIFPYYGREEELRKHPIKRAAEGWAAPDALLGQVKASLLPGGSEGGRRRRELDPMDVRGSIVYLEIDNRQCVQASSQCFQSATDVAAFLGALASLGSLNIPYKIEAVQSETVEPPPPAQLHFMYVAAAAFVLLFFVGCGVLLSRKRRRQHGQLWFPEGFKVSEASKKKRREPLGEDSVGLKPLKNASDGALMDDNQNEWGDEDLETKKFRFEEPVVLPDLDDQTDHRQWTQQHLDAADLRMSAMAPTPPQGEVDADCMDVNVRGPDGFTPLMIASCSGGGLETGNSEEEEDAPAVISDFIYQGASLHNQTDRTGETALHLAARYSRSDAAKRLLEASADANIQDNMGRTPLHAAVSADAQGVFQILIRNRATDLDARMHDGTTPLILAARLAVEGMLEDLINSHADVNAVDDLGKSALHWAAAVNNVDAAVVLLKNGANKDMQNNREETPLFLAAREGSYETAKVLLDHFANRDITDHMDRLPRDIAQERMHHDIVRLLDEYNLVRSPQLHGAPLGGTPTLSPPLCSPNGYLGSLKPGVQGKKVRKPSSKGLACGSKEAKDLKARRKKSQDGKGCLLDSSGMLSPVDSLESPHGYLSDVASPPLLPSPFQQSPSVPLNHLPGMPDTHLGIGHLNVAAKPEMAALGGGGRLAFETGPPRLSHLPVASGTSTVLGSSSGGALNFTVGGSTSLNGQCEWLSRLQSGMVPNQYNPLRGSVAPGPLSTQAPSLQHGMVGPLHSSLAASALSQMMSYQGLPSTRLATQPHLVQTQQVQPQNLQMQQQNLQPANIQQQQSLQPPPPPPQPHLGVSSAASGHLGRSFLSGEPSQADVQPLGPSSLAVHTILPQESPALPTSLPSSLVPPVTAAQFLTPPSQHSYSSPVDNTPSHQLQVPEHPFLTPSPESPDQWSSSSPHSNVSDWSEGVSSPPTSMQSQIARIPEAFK

[8] = target: full-length mouse Notch1 expressed on the cell surface of U-2 OS cells (mouse) (UniProt Q01705); experiment: cell-based or functional assay
[9] = target: Notch1 receptor with L1575P mutation (HPB-ALL cells) (UniProt P46531); experiment: cell-based or functional assay
Notch1 receptor with L1575P mutation (HPB-ALL cells), sequence (P46531 19-2555 L1593P limits assumed): as the sequence (P46531 19-2555) above, with L1575P counted along it

[10] = target: full-length human Notch1 expressed on the cell surface (human) (UniProt P46531); experiment: cell-based or functional assay; remark: listed apart in the source
[11] = target: full-length mouse Notch1 expressed on the cell surface of U-2 OS cells (mouse) (UniProt Q01705); experiment: cell-based or functional assay; remark: listed apart in the source

Notch1 receptor with L1594P/D1610V mutations (DND-41 cells), sequence (P46531 19-2555, stated change not applied): as the sequence (P46531 19-2555) above

A2 antibody (Wu, Y. et al., Nature 464:1052-1057, 2010)
pKd [1]: 8.53 | Normalized Notch1^ICD level, DND-41 cells, 0.001 µg/ml antibody (relative to untreated) [2]: 0.787 | Normalized Notch1^ICD level, DND-41 cells, 0.01 µg/ml antibody (relative to untreated) [2]: 0.84 | Normalized Notch1^ICD level, DND-41 cells, 0.1 µg/ml antibody (relative to untreated) [2]: 0.479 | Normalized Notch1^ICD level, DND-41 cells, 1 µg/ml antibody (relative to untreated) [2]: 0.199 | Normalized Notch1^ICD level, DND-41 cells, 10 µg/ml antibody (relative to untreated) [2]: 0.114 | Normalized Notch1^ICD level, CCRF-CEM cells, 0.001 µg/ml antibody (relative to untreated) [3]: 1.12 | Normalized Notch1^ICD level, CCRF-CEM cells, 0.01 µg/ml antibody (relative to untreated) [3]: 1.28 | Normalized Notch1^ICD level, CCRF-CEM cells, 0.1 µg/ml antibody (relative to untreated) [3]: 0.424 | Normalized Notch1^ICD level, CCRF-CEM cells, 1 µg/ml antibody (relative to untreated) [3]: 0.048 | Normalized Notch1^ICD level, CCRF-CEM cells, 10 µg/ml antibody (relative to untreated) [3]: 0.027 | Normalized Notch1^ICD level, Jurkat cells, 0.001 µg/ml antibody (relative to untreated) [4]: 1.2 | Normalized Notch1^ICD level, Jurkat cells, 0.01 µg/ml antibody (relative to untreated) [4]: 1.17 | Normalized Notch1^ICD level, Jurkat cells, 0.1 µg/ml antibody (relative to untreated) [4]: 0.983 | Normalized Notch1^ICD level, Jurkat cells, 1 µg/ml antibody (relative to untreated) [4]: 1.15 | Normalized Notch1^ICD level, Jurkat cells, 10 µg/ml antibody (relative to untreated) [4]: 1.59 | Normalized Notch1^ICD level, MOLT-4 cells, 0.01 µg/ml antibody (relative to untreated) [5]: 0.962 | Normalized Notch1^ICD level, MOLT-4 cells, 0.1 µg/ml antibody (relative to untreated) [5]: 0.644 | Normalized Notch1^ICD level, MOLT-4 cells, 10 µg/ml antibody (relative to untreated) [5]: 0.043 | Normalized Notch1^ICD level, ALL-SIL cells, 0.001 µg/ml antibody (relative to untreated) [6]: 1.56 | Normalized Notch1^ICD level, ALL-SIL cells, 0.01 µg/ml antibody (relative to untreated) [6]: 1.31 | Normalized Notch1^ICD level, ALL-SIL cells, 0.1 µg/ml antibody (relative to untreated) [6]: 0.068 | Normalized Notch1^ICD level, ALL-SIL cells, 1 µg/ml antibody (relative to untreated) [6]: 0.033 | Normalized Notch1^ICD level, ALL-SIL cells, 10 µg/ml antibody (relative to untreated) [6]: 0.043 | Firefly/Renilla Luminescence, human Notch1 reporter cells + 5 mM EDTA, 0.01 µg/mL antibody (Firefly/Renilla ratio) [7]: 312 | Firefly/Renilla Luminescence, human Notch1 reporter cells + 5 mM EDTA, 0.1 µg/mL antibody (Firefly/Renilla ratio) [7]: 172 | Firefly/Renilla Luminescence, human Notch1 reporter cells + 5 mM EDTA, 1 µg/mL antibody (Firefly/Renilla ratio) [7]: 89.9 | Firefly/Renilla Luminescence, human Notch1 reporter cells + 5 mM EDTA, 10 µg/mL antibody (Firefly/Renilla ratio) [7]: 63.5 | Firefly/Renilla Luminescence, human Notch1 reporter cells + 5 mM EDTA, 30 µg/mL antibody (Firefly/Renilla ratio) [7]: 55.2 | IC50, Notch1 signaling inhibition co-culture reporter assay [7]: 180 pM | IC50, human Notch1 reporter gene co-culture assay (DLL4-HEK293) [7]: 310 pM | Maximal Inhibition (%), Notch1 signaling inhibition co-culture reporter assay [7]: 97.7% | Neutralization activity (Human RGA), % Inhibition (maximal) [7]: 100% | Neutralization activity (Human RGA), IC50 [7]: 300 pM | Normalized Notch1^ICD level, CCD1076SK fibroblasts on DLL4, 0.001 µg/ml antibody (relative to untreated) [7]: 0.748 | Normalized Notch1^ICD level, CCD1076SK fibroblasts on DLL4, 0.01 µg/ml antibody (relative to untreated) [7]: 0.402 | Normalized Notch1^ICD level, CCD1076SK fibroblasts on DLL4, 0.1 µg/ml antibody (relative to untreated) [7]: 0.003 | Normalized Notch1^ICD level, CCD1076SK fibroblasts on DLL4, 1 µg/ml antibody (relative to untreated) [7]: 0.003 | Normalized Notch1^ICD level, CCD1076SK fibroblasts on DLL4, 10 µg/ml antibody (relative to untreated) [7]: 0.006 | IC50, mouse Notch1 reporter gene co-culture assay (DLL4-HEK293) [8]: 320 pM | Neutralization activity (murine RGA), % Inhibition (maximal) [8]: 86% | Neutralization activity (murine RGA), IC50 [8]: 200 pM | IC50, MTS viability assay of HPB-ALL leukemia cells [9]: 1850 pM | Normalized Notch1^ICD level, HPB-ALL cells, 0.001 µg/ml antibody (relative to untreated) [9]: 0.852 | Normalized Notch1^ICD level, HPB-ALL cells, 0.01 µg/ml antibody (relative to untreated) [9]: 1.15 | Normalized Notch1^ICD level, HPB-ALL cells, 0.1 µg/ml antibody (relative to untreated) [9]: 0.33 | Normalized Notch1^ICD level, HPB-ALL cells, 1 µg/ml antibody (relative to untreated) [9]: 0.038 | Normalized Notch1^ICD level, HPB-ALL cells, 10 µg/ml antibody (relative to untreated) [9]: 0.041 | Neutralization activity (Human RGA), % Inhibition [10]: 99.1% | Neutralization activity (Human RGA), IC50 [10]: 270 pM | Neutralization activity (murine RGA), % Inhibition [11]: 82% | Neutralization activity (murine RGA), IC50 [11]: 360 pM

control anti-E. tenella antibody
Firefly/Renilla Luminescence, human Notch1 reporter cells + 5 mM EDTA, 0.01 µg/mL antibody (Firefly/Renilla ratio) [7]: 267 | Firefly/Renilla Luminescence, human Notch1 reporter cells + 5 mM EDTA, 0.1 µg/mL antibody (Firefly/Renilla ratio) [7]: 299 | Firefly/Renilla Luminescence, human Notch1 reporter cells + 5 mM EDTA, 1 µg/mL antibody (Firefly/Renilla ratio) [7]: 278 | Firefly/Renilla Luminescence, human Notch1 reporter cells + 5 mM EDTA, 10 µg/mL antibody (Firefly/Renilla ratio) [7]: 257 | Firefly/Renilla Luminescence, human Notch1 reporter cells + 5 mM EDTA, 30 µg/mL antibody (Firefly/Renilla ratio) [7]: 229
